No end group written: not given here.
B1: peptide corresponding to the extreme C-terminus of human Presenilin 1 (CMDQLAFHQFYI) (peptide)
peptide: CMDQLAFHQFYI
modifications: also: immobilized on SulfoLink beads
notes: Has an added N-terminal Cys and is immobilized on SulfoLink beads; also called Pres1; presenilin 1 column

What was measured:
[1] = target: T1, synaptophysin 1 (Syp) (rat, UniProt P07825 1-307); assay: affinity chromatography of rat forebrain membrane proteins on the presenilin 1 C-terminal peptide
T1 construct: Negative control protein
T1 sequence (P07825 whole entry): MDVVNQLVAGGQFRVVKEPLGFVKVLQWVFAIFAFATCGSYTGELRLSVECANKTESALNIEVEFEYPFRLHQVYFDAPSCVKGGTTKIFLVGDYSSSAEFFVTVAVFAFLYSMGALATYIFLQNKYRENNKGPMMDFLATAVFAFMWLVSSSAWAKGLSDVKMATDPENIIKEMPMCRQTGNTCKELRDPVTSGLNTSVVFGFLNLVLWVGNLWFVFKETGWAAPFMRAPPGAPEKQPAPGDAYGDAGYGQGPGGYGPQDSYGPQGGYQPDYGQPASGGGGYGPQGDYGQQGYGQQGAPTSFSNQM

[2] = target: T2, Mint 3 (rat, UniProt O70248 1-569); assay: affinity chromatography on the immobilized presenilin 1 C-terminal peptide, immunoblot
T2 construct: Endogenous rat brain protein or full-length rat Mint 3 from a pCMV5 vector; also called Mints/X11 3; pCMV-Mint 3
T2 sequence (looked up): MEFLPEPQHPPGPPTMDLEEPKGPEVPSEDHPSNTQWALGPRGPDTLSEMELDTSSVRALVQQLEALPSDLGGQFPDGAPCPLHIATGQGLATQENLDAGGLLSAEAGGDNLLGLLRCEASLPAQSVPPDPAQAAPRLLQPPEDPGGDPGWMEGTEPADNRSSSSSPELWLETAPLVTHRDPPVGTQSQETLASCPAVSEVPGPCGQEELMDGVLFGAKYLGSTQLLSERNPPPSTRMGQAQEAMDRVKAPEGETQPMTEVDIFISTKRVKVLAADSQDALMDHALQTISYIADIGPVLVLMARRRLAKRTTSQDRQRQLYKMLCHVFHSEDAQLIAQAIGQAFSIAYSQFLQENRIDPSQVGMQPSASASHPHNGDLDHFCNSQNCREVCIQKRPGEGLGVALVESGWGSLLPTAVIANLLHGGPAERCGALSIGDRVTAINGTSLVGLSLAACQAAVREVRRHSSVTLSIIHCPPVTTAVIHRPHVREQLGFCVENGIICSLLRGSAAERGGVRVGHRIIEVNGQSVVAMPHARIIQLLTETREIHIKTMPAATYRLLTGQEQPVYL

[3] = target: T3, Mint 1 (rat, UniProt O35430 1-839); assay: as above
T3 construct: Full-length rat Mint 1 from pCMV5 vectors in transfected COS/HEK293 cells; also called Mints/X11 1; wild-type Mint 1
T3 sequence: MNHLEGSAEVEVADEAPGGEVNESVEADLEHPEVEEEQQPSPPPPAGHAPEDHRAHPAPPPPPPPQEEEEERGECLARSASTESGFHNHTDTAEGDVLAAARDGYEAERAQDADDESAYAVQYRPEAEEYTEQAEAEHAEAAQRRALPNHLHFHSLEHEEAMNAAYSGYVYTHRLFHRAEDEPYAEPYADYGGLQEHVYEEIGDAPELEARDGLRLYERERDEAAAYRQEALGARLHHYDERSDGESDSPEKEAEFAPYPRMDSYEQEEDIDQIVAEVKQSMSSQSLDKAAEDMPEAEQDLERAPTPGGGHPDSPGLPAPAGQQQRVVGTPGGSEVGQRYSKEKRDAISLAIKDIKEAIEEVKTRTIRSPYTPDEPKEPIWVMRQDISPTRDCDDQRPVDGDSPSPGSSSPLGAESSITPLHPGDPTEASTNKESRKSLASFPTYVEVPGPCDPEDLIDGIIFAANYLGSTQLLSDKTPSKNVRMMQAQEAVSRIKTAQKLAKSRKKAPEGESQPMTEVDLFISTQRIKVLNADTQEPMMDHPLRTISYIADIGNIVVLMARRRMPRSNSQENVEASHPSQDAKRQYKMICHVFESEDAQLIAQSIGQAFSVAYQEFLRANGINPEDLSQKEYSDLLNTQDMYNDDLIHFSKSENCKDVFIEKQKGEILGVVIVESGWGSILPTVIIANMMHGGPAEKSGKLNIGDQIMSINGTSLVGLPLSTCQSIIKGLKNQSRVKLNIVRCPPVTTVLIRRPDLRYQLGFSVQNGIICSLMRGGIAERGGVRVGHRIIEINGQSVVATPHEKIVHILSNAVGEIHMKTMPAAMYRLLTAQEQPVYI

[4] = target: T4, Mint 2 (rat, UniProt O35431 1-750); assay: affinity chromatography of rat forebrain membrane proteins on the immobilized presenilin 1 C-terminal peptide, immunoblot
T4 construct: Endogenous rat brain protein or full-length rat Mint 2 from a pCMV5 vector; also called Mints/X11 2; pCMV-Mint 2
T4 sequence: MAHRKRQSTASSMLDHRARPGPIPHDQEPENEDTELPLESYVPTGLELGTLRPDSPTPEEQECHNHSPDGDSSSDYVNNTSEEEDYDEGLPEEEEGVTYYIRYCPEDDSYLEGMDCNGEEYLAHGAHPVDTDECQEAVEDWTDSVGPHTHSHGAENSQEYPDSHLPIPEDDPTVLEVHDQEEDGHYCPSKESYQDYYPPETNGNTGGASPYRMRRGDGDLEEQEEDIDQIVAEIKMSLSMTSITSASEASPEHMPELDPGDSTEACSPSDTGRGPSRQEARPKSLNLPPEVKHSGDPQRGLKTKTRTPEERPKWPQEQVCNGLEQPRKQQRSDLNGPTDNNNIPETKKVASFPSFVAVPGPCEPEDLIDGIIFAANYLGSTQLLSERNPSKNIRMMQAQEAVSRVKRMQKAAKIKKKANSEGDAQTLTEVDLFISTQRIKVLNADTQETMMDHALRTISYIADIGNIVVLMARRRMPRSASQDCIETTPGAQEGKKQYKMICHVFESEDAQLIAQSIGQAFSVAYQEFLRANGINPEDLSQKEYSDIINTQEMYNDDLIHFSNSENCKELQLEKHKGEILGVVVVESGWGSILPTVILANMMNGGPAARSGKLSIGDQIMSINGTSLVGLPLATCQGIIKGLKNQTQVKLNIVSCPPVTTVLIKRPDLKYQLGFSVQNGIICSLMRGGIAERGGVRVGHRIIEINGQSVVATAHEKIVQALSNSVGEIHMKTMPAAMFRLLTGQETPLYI

[5] = target: PSD95 (rat, UniProt P31016 1-724); assay: as above
PSD95, sequence (P31016 whole entry): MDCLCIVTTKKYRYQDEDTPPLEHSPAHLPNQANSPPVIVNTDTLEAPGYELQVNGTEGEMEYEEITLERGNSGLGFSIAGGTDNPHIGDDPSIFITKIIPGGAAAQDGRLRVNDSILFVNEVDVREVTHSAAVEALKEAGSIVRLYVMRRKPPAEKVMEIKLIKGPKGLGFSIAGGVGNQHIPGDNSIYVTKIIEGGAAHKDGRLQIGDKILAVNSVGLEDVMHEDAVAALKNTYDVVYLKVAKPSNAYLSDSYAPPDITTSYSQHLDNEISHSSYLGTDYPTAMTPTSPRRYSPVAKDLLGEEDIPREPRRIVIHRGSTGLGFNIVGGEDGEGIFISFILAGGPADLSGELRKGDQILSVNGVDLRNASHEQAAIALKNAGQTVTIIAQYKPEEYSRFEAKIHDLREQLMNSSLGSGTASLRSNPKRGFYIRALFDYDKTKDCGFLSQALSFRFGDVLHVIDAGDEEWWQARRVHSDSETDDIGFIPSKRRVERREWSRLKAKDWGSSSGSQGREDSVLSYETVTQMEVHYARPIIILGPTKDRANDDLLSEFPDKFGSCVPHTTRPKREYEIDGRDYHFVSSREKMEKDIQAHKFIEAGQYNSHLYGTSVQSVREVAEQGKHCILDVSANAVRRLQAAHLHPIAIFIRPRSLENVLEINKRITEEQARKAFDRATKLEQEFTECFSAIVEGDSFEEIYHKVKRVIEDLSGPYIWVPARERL

[6] = target: T2, Mint 3; assay: affinity chromatography on the immobilized APP tail peptide, immunoblot
[7] = target: T3, Mint 1; assay: as above
[8] = target: T4, Mint 2; assay: as above
[9] = target: B1; assay: affinity chromatography of COS cell-expressed Mint 1 proteins on the immobilized presenilin 1 C-terminal peptide
[10] = target: T3, Mint 1; assay: affinity chromatography on the immobilized Drosophila presenilin C-terminal peptide
[11] = target: T3, Mint 1; assay: affinity chromatography on the immobilized presenilin 2 C-terminal peptide
[12] = target: T3, Mint 1; assay: affinity chromatography on the immobilized HPV2 control peptide
[13] = target: T3, Mint 1; assay: affinity chromatography of rat brain extract on the immobilized gp41 control peptide, immunoblot
[14] = target: T2, Mint 3; assay: affinity chromatography of rat forebrain membrane proteins on the gp41 control peptide
[15] = target: T4, Mint 2; assay: as above
[16] = target: APP-Gal4/VP16 fusion protein (human; yeast, UniProt P05067 18-651; P04386 1-147; P06492 413-490; P05067 652-695); assay: cell-based or functional assay

## B1
[1]
  binding result: no binding
[2]
  binding result: binds
[3]
  binding result: binds
[4]
  binding result: binds
[5]
  binding result: binds

B2: immobilized cytoplasmic peptide derived from APP (CGYENPTYKFFEQMQN) (peptide)
peptide: CGYENPTYKFFEQMQN
modifications: not fully specified (residue 1); also: immobilized on SulfoLink beads via N-terminal Cys
notes: Coupled through the added N-terminal Cys to SulfoLink beads; also called immobilized cytoplasmic tail of APP; immobilized APP tail
[6]
  binding result: binds
[7]
  binding result: binds
[8]
  binding result: binds

B3: Mint 1 PDZ1* (other)
chain: MNHLEGSAEVEVADEAPGGEVNESVEADLEHPEVEEEQQPSPPPPAGHAPEDHRAHPAPPPPPPPQEEEEERGECLARSASTESGFHNHTDTAEGDVLAAARDGYEAERAQDADDESAYAVQYRPEAEEYTEQAEAEHAEAAQRRALPNHLHFHSLEHEEAMNAAYSGYVYTHRLFHRAEDEPYAEPYADYGGLQEHVYEEIGDAPELEARDGLRLYERERDEAAAYRQEALGARLHHYDERSDGESDSPEKEAEFAPYPRMDSYEQEEDIDQIVAEVKQSMSSQSLDKAAEDMPEAEQDLERAPTPGGGHPDSPGLPAPAGQQQRVVGTPGGSEVGQRYSKEKRDAISLAIKDIKEAIEEVKTRTIRSPYTPDEPKEPIWVMRQDISPTRDCDDQRPVDGDSPSPGSSSPLGAESSITPLHPGDPTEASTNKESRKSLASFPTYVEVPGPCDPEDLIDGIIFAANYLGSTQLLSDKTPSKNVRMMQAQEAVSRIKTAQKLAKSRKKAPEGESQPMTEVDLFISTQRIKVLNADTQEPMMDHPLRTISYIADIGNIVVLMARRRMPRSNSQENVEASHPSQDAKRQYKMICHVFESEDAQLIAQSIGQAFSVAYQEFLRANGINPEDLSQKEYSDLLNTQDMYNDDLIHFSKSENCKDVFIEKQKGEILAAVIVESGWGSILPTVIIANMMHGGPAEKSGKLNIGDQIMSINGTSLVGLPLSTCQSIIKGLKNQSRVKLNIVRCPPVTTVLIRRPDLRYQLGFSVQNGIICSLMRGGIAERGGVRVGHRIIEINGQSVVATPHEKIVHILSNAVGEIHMKTMPAAMYRLLTAQEQPVYI
notes: Produced in transfected COS or HEK293 cells; also called pCMV-Mint 1-PDZ1*
[9]
  fold decrease in binding against wild-type Mint 1: ~2 fold decrease

B4: peptide corresponding to the extreme C-terminus of Drosophila Presenilin (CMEDLSAKQVFI) (peptide)
peptide: CMEDLSAKQVFI
modifications: also: immobilized on SulfoLink beads
notes: Has an added N-terminal Cys and is immobilized on SulfoLink beads; also called Drosophila presenilin C-terminal peptide
[10]
  binding result: binds

B5: peptide corresponding to the extreme C-terminus of human Presenilin 2 (CMDTLASHQLYI) (peptide)
peptide: CMDTLASHQLYI
modifications: also: immobilized on SulfoLink beads
notes: Has an added N-terminal Cys and is immobilized on SulfoLink beads; also called presenilin 2 C-terminal peptide
[11]
  binding result: binds

B6: peptide corresponding to the extreme C-terminus of human HPV2 (poliovirus receptor-related protein 2; CGSLISRRAVYV) (peptide)
peptide: CGSLISRRAVYV
modifications: also: immobilized on SulfoLink beads
notes: Negative control peptide immobilized on SulfoLink beads; also called HPV2 control peptide
[12]
  binding result: no binding

B7: peptide derived from the gp41 glycoprotein (CWFSITNWLWYI) (peptide)
peptide: CWFSITNWLWYI
modifications: also: immobilized on SulfoLink beads
notes: Negative control peptide immobilized on SulfoLink beads; also called gp41 control peptide; Control
[13]
  binding result: no binding
[14]
  binding result: no binding
[15]
  binding result: no binding

B8: Mint 1 ΔPDZ (other)
chain: MNHLEGSAEVEVADEAPGGEVNESVEADLEHPEVEEEQQPSPPPPAGHAPEDHRAHPAPPPPPPPQEEEEERGECLARSASTESGFHNHTDTAEGDVLAAARDGYEAERAQDADDESAYAVQYRPEAEEYTEQAEAEHAEAAQRRALPNHLHFHSLEHEEAMNAAYSGYVYTHRLFHRAEDEPYAEPYADYGGLQEHVYEEIGDAPELEARDGLRLYERERDEAAAYRQEALGARLHHYDERSDGESDSPEKEAEFAPYPRMDSYEQEEDIDQIVAEVKQSMSSQSLDKAAEDMPEAEQDLERAPTPGGGHPDSPGLPAPAGQQQRVVGTPGGSEVGQRYSKEKRDAISLAIKDIKEAIEEVKTRTIRSPYTPDEPKEPIWVMRQDISPTRDCDDQRPVDGDSPSPGSSSPLGAESSITPLHPGDPTEASTNKESRKSLASFPTYVEVPGPCDPEDLIDGIIFAANYLGSTQLLSDKTPSKNVRMMQAQEAVSRIKTAQKLAKSRKKAPEGESQPMTEVDLFISTQRIKVLNADTQEPMMDHPLRTISYIADIGNIVVLMARRRMPRSNSQENVEASHPSQDAKRQYKMICHVFESEDAQLIAQSIGQAFSVAYQEFLRANGINPEDLSQKEYSDLLNTQDMYNDDLIHFSKSENCKDV
[16]
  potency of inhibition of transactivation relative to wild-type Mint 1 (normalized to expressed protein): ~10 times more potent than wild-type Mint 1
